Results reported in article PMC7431817.

Legend:
[1] = molecular target: EGFR-GFP (epidermal growth factor receptor fused to GFP) on F1-4 cells (UniProt P00533); test: flow cytometry on cells; two-fold dilution series of TAMRA-EGF in PBS + 1% BSA on suspended F1-4 cells, 1 h on ice, measured without washing; Hill equation fit, apparent Kd; untreated (control) cells, all cells
[2] = molecular target: EGFR-GFP (epidermal growth factor receptor fused to GFP) on F1-4 cells (UniProt P00533); test: flow cytometry on cells; cells treated with 5 uM lapatinib at 37°C for 1 h and labelled with TAMRA-EGF in the continued presence of the inhibitor, 1 h on ice; Hill equation fit, apparent Kd; high expresser gate
[3] = molecular target: EGFR-GFP (epidermal growth factor receptor fused to GFP) on F1-4 cells (UniProt P00533); test: flow cytometry on cells; F1-4 cells incubated with a concentration series of EGF for 24 h on ice; Hill equation fit; the paper finds internalized EGF and questions equilibrium at this time
[4] = molecular target: EGFR-GFP (epidermal growth factor receptor fused to GFP) on F1-4 cells (UniProt P00533); test: flow cytometry on cells; F1-4 cells treated with 2 uM latrunculin-B at 37°C for 10 min, then concentration series of TAMRA-EGF, 1 h on ice; Hill equation fit
[5] = molecular target: EGFR-GFP (epidermal growth factor receptor fused to GFP) on F1-4 cells (UniProt P00533); test: flow cytometry on cells; cells treated with 5 uM lapatinib at 37°C for 1 h and labelled with TAMRA-EGF in the continued presence of the inhibitor, 1 h on ice; Hill equation fit, apparent Kd; all cells
[6] = molecular target: EGFR-GFP (epidermal growth factor receptor fused to GFP) on F1-4 cells (UniProt P00533); test: flow cytometry on cells; cells treated with 5 uM erlotinib at 37°C for 1 h and labelled with TAMRA-EGF in the continued presence of the inhibitor, 1 h on ice; Hill equation fit, apparent Kd; high expresser gate
[7] = molecular target: EGFR-GFP (epidermal growth factor receptor fused to GFP) on F1-4 cells (UniProt P00533); test: flow cytometry on cells; cells treated with 5 uM lapatinib at 37°C for 1 h and labelled with TAMRA-EGF in the continued presence of the inhibitor, 1 h on ice; Hill equation fit, apparent Kd; low expresser gate
[8] = molecular target: EGFR-GFP (epidermal growth factor receptor fused to GFP) on F1-4 cells (UniProt P00533); test: flow cytometry on cells; cells treated with 5 uM lapatinib at 37°C for 1 h and labelled with TAMRA-EGF in the continued presence of the inhibitor, 1 h on ice; Hill equation fit, apparent Kd; medium expresser gate
[9] = molecular target: EGFR-GFP (epidermal growth factor receptor fused to GFP) on F1-4 cells (UniProt P00533); test: flow cytometry on cells; cells treated with 5 uM erlotinib at 37°C for 1 h and labelled with TAMRA-EGF in the continued presence of the inhibitor, 1 h on ice; Hill equation fit, apparent Kd; medium expresser gate
[10] = molecular target: EGFR-GFP (epidermal growth factor receptor fused to GFP) on F1-4 cells (UniProt P00533); test: flow cytometry on cells; global fit of the paper's model (conformations of ECD and kinase domain, dimerization, ligand binding to monomers and dimers) to all 12 TAMRA-EGF binding data sets (untreated, erlotinib, lapatinib; three gates and all cells), 1 h on ice; K2-K9 shared; ligand constants in nM, receptor dimerization constants in number of receptors/cell

Kd [1]: 3.4 nM | Kd [2]: 4.9 nM | Kd [3]: 5.2 nM | Kd [4]: 8.2 nM | Kd [5]: 4.9 nM | Kd [6]: 1.7 nM | Kd [7]: 6.3 nM | Kd [8]: 5.1 nM | Kd [9]: 1.8 nM | K3, Kd of EGF binding to a monomer with extended ECD [10]: 1.3 nM | K5, Kd of binding of the first EGF to a dimer with inactive, symmetric kinase dimer [10]: 95 nM | K6, Kd of binding of the second EGF to a dimer with inactive, symmetric kinase dimer [10]: 0.45 nM | K9, Kd of binding of the second EGF to a dimer with active, asymmetric kinase dimer [10]: 2.96 nM
Substance: Tetramethylrhodamine-labeled EGF (ligand)
